≈ marks a conversion by molar mass, not a printed value. Read-outs that look alike come from different tables or passages of the source.

The subject of data set [1] is S. aureus (MRSA) ATCC 43300. As to the kind of experiment: Resistance frequency assay. The data set is classed as cell-based. The conditions noted are these: Staphylococcus aureus; TSB 1% agarose, 0.002% Tween 80; read-out: Agarose plate MIC.
Experimental: The resistance frequency for Compound 19 was determined following literature procedures[41], [42].
Compound 19 was prepared to 160 µg mL^−1 solution in water from the given stock solution of 1 mM concentration. Vancomycin was prepared to 1.28 mg mL^−1 solution in water.
Tryptic soy broth (TSB) with 1% agarose and 0.002% Tween 80 was maintained at 45 to 50 °C in a water bath. 160 mL of agarose was transferred to 200 mL glass bottle, maintaining the remaining agarose in the water bath. […] A volume of 80 mL of agarose sample [A] was plated in four petri plates (duplicates/condition—neat, 10^−1) with swirling to ensure that the bottom of the plate was coated equally. An additional 80 mL of fresh agarose was added to the remaining 80 mL of agarose [A] sample to achieve a twofold dilution to provide agarose sample [B]. Once again, 80 mL of agarose sample [B] was plated in four petri plates. […]
Bacteria were subcultured at 37 °C overnight with shaking at 220 rpm. […] Resultant separated visible colonies were counted; those colonies that grow together were not included to determine the titre of the culture. […]
The colonies were counted after 24 h. The resistance frequency is determined by dividing the number of colonies obtained on the plates containing the antibacterial agent by the number of cells plated.
The test system of data set [2] is MRSA (Strain ATCC 43300). As to the kind of experiment: MRSA thigh infection in vivo efficacy model (neutropenic mice). On the set-up: species or system Staphylococcus aureus. The conditions noted are these: single 25 mg kg^−1 SC dose. As to the method: Thighs were then removed, weighed and homogenised in a fixed volume of saline.
Untreated animals received equivalent volume of saline (Baxter). […] For each mouse, both thighs were collected aseptically by cutting the leg at the hip and knee, placed in 10 mL of cold sterile saline and the individual weight of each thigh recorded.

Data set [3] relates to HEK293 cells. As to the kind of experiment: Cytotoxicity MTT assay. The data set is classed as cell-based, human. Summed up:
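HepG2 and HEK293 cells, 1.5 × 10^4 per well in DMEM with 1% FBS, were allowed to attach for 24 h, then exposed 24 h at 37 °C to compounds at 100 µM to 0.046 µM in threefold steps. MTT (0.4 mg mL^−1) was added for 2 h, and formazan in DMSO was read at 570 nm. Viability is given as percent of control, corrected for a positive control.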

Data set [4] concerns MRSA (ATCC 43300). The conditions noted are these: 20 days, increasing sub-lethal concentrations.
Experimental: A resistance induction assay was conducted for vancomycin, daptomycin, compound 17 and compound 24 [43].
S. aureus ATCC®43300™ was grown in Mueller Hinton broth supplemented with 50 µg mL^−1 of CaCl2. The bacterial culture was incubated at 37 °C in a shaker at 195 rpm.
The mid log S. aureus growth culture was serially diluted and plated on a solid LB agar plates in quadruplicates and incubated at 37 °C overnight to determine viable colony count.
The initial determination of the compound MICs were taken from the literature and empirically measured. […] The plate was then incubated at 37 °C overnight.
After overnight incubation, the growth of the S. aureus (MRSA) culture was determined by reading at OD600 on the Epoch microplate spectrophotometer and 0.1 OD600 was the chosen cut-off determining growth vs. no growth.
A short description of data set [5]: SPR membrane binding assay. To be noted: L1 chip, DMPC / DMPG bilayers. As to the method:
SPR experiments were performed using a BIAcore 3000 (GE Health) instrument with a Biacore vesicle capture L1 sensor chip. […] Small unilamellar vesicles (SUV) were prepared in phosphate buffered saline (PBS) (pH 7.4) by sonication and extrusion. […] PBS was then added into each flask to give a suspension, which was sonicated for 5 cycles of 5 min each. […] The SUVs were injected across the L1 sensor chip for 30 min at a flow rate of […] to form a supported lipid bilayer. The coverage of the lipid bilayer was determined from the extent of non-specific binding of bovine serum albumin (0.1 mg mL^-1 in PBS, 5 min injection). A series of concentrations of vancomycin and […] passed sequentially over the different phospholipid-containing flow cells at a flow rate of 30 μL min^-1 for 180 s. The amount of antibiotic bound at equilibrium just before the end of the injection was corrected by subtraction of the bulk-refractive index difference observed at the beginning and the end of each injection. After each injection cycle, the lipid surface was regenerated with 20 mM 3-[(3-cholamidopropyl)dimethylammonio]-1-propanesulfonate (CHAPS) and a fresh lipid bilayer was loaded as described above. All assays were carried out at 25 °C in triplicate. […]

For data set [6] the following is noted: for half-life / microsomal CLint: liver microsomes; for Microsome-Predicted EH: hepatic extraction ratio. The protocol: Performed by CDCO, Monash University, Australia.
The metabolic stability assay was performed by incubating each test compound (1 μM) with human (Xenotech, Lot #1210057) and mouse (Xenotech, Lot #1110071) liver microsomes at 37 °C and 0.4 mg mL^−1 protein concentration. The metabolic reaction was initiated by the addition of a nicotinamide adenine dinucleotide phosphate (NADPH)-regenerating system (i.e. NADPH is the cofactor required for cytochrome P450-mediated metabolism) and quenched at various time points over the 60 min incubation period by the addition of acetonitrile. Control samples (containing no NADPH) were included (and quenched at 2, 30 and 60 min) to monitor for potential degradation in the absence of cofactors. Concentrations of each test compound in quenched samples were determined by ultra performance liquid chromatography mass spectrometry (UPLC-MS) (Waters/Micromass Xevo triple quadrupole mass spectrometer). […] In addition, glucuronidation was not considered in this study and may require further assessment using alternative test systems.
Test compound concentration vs. time data were fitted to an exponential decay function to determine the first-order rate constant for substrate depletion. In cases where clear deviation from first-order kinetics was evident, only the initial linear portion of the profile was utilised to determine the degradation rate constant (k). Each substrate depletion rate constant was then used to calculate: (1) a degradation half-life, where t 1/2 = ln(2) k ^−1; (2) an in vitro intrinsic clearance value, where CLint,in vitro = k [microsomal protein content (0.4 mg mL^−1)]^−1; (3) a predicted in vivo hepatic intrinsic clearance value, where CLint = CLint,in vitro × [liver mass (g)/body weight (kg)] × [microsomal protein (mg) / liver mass (g)]; and (4) a predicted in vivo hepatic extraction ratio, where E H = CLblood Q ^−1 = Clint [Q + Clint]^−1.
Scaling parameters assumed were: human liver mass 20 g liver / kg body weight, human microsomal protein 40 mg g^−1 liver mass[49], [50], human hepatic blood flow (Q) 20.7 mL min^−1 kg body weight^−1 [51], mouse liver mass 87.5 g liver / kg body weight, mouse microsomal protein 45 mg g^−1 liver mass[51], mouse hepatic blood flow (Q) 90 mL min^−1 kg body weight^−1 [51].

Broadly, the MIC is the lowest concentration found to suppress growth. As to `CN[C@H](CC(C)C)C(=O)N[C@H]1C(=O)N[C@@H](CC(N)=O)C(=O)N[C@H]2C(=O)N[C@H]3C(=O)N[C@H](C(=O)N[C@H](C(=O)O)c4cc(O)cc(O)c4-c4cc3ccc4O)[C@H](O)c3ccc(c(Cl)c3)Oc3cc2cc(c3O[C@@H]2O[C@H](CO)[C@@H](O)[C@H](O)[C@H]2O[C@H]2C[C@](C)(N)[C@H](O)[C@H](C)O2)Oc2ccc(cc2Cl)[C@H]1O` [Compound 1, Vancomycin], the MIC in data set [1] amounted to 1 µg/mL (≈ 0.69 µM). Further, the “Efficacy in thigh infection model” value in data set [2] is “almost inactive”.

As a reminder, the CC50 is the concentration giving 50% cytotoxicity. Read a low CC50 as harm at low concentration. `CN[C@H]1C(=O)N[C@@H]2Cc3ccc(cc3)Oc3cc4cc(c3O[C@@H]3O[C@H](C(=O)O)[C@@H](O)[C@H](O)[C@H]3NC(=O)CCCCCCCCC(C)C)Oc3ccc(cc3Cl)[C@@H](O)[C@@H]3NC(=O)[C@H](NC(=O)[C@@H]4NC(=O)[C@@H](NC2=O)c2cc(cc(O)c2Cl)Oc2cc1ccc2O)c1ccc(O)c(c1)-c1c(O[C@H]2O[C@H](CO)[C@@H](O)[C@H](O)[C@@H]2O)cc(O)cc1[C@@H](C(=O)NCCCN(C)C)NC3=O` [Compound 3, Dalbavancin] gave a CC50 in data set [3] of 73 µM.

As for `CCCCCCCCCCCCCC(=O)N[C@@H](CCCCN)C(=O)N[C@@H](CCCCN)C(=O)N[C@@H](CCCCN)C(=O)N[C@@H](CCCCNC(=O)[C@H]1NC(=O)[C@H]2NC(=O)[C@H](NC(=O)[C@@H]3NC(=O)[C@H](CC(N)=O)NC(=O)[C@H](NC(=O)[C@@H](CC(C)C)NC)[C@H](O)c4ccc(c(Cl)c4)Oc4cc3cc(c4O[C@@H]3O[C@H](CO)[C@@H](O)[C@H](O)[C@H]3O[C@H]3C[C@](C)(N)[C@H](O)[C@H](C)O3)Oc3ccc(cc3Cl)[C@H]2O)c2ccc(O)c(c2)-c2c(O)cc(O)cc21)C(=O)O` [Compound 17, nC13CO-KKK-K(Vancomycin)-OH], the “Induced resistance on serial culture” value in data set [4] was “low levels of resistance compared to daptomycin”. For the same compound, the “Membrane association by SPR compared to vancomycin” value in data set [5] is on record as “Increased membrane association”.

For orientation: half-life means the time in which the quantity being followed falls by half. As usually defined, the microsomal CLint is a measure of how fast metabolising enzymes remove a compound, apart from limits set by blood flow. Low values mean greater metabolic stability, high ones faster metabolism. As to `CCCCCCCCCCC(=O)N[C@@H](CCCCN)C(=O)N[C@@H](CCCCN)C(=O)N[C@@H](CCCCN)C(=O)N[C@@H](CCCCNC(=O)[C@H]1NC(=O)[C@H]2NC(=O)[C@H](NC(=O)[C@@H]3NC(=O)[C@H](CC(N)=O)NC(=O)[C@H](NC(=O)[C@@H](CC(C)C)NC)[C@H](O)c4ccc(c(Cl)c4)Oc4cc3cc(c4O[C@@H]3O[C@H](CO)[C@@H](O)[C@H](O)[C@H]3O[C@H]3C[C@](C)(N)[C@H](O)[C@H](C)O3)Oc3ccc(cc3Cl)[C@H]2O)c2ccc(O)c(c2)-c2c(O)cc(O)cc21)C(=O)O` [Compound 18, nC10CO-KKK-K(Vancomycin)-OH], in data set [6] (human), the half-life is > 250 min, the microsomal CLint is < 7 µL/min/mg and the “Microsome-Predicted EH” value was < 0.23. In data set [6] (mouse), the half-life was 236 min, the microsomal CLint turned out to be 7 µL/min/mg and the “Microsome-Predicted EH” value is recorded as 0.24.

In the case of `CCCCCCCCCCC(=O)N[C@@H](CCCCN)C(=O)N[C@@H](CCCCN)C(=O)N[C@@H](CCCCNC(=O)[C@H]1NC(=O)[C@H]2NC(=O)[C@H](NC(=O)[C@@H]3NC(=O)[C@H](CC(N)=O)NC(=O)[C@H](NC(=O)[C@@H](CC(C)C)NC)[C@H](O)c4ccc(c(Cl)c4)Oc4cc3cc(c4O[C@@H]3O[C@H](CO)[C@@H](O)[C@H](O)[C@H]3O[C@H]3C[C@](C)(N)[C@H](O)[C@H](C)O3)Oc3ccc(cc3Cl)[C@H]2O)c2ccc(O)c(c2)-c2c(O)cc(O)cc21)C(=O)O` [Compound 19, nC10CO-KK-K(Vancomycin)-OH], in data set [6] (human), the half-life is > 250 min, the microsomal CLint is < 7 µL/min/mg and the “Microsome-Predicted EH” value is reported as < 0.23. Also, in data set [6] (mouse), the half-life is > 250 min, the intrinsic metabolic clearance (microsomal CLint) was < 7 µL/min/mg and the “Microsome-Predicted EH” value is < 0.23.

The record behind these values is article PMC5750218, “Protein-inspired antibiotics active against vancomycin- and daptomycin-resistant bacteria” (Nature Communications, 2018).
